Measured values: publication doi:10.1101/2020.10.14.337444

B1: PABPC1 control 35-mer (ssRNA)
RNA: GGCCCCCAGCCCCGGCACUCGCUCUCCUCCUCUCA
B2: PABPC1 target 35-mer (ssRNA)
RNA: CCUCUUUUAUAAAAUAACCCGGUGAAGCAGCCGAG

Columns and labels:
ENO1 wt = ENO1 wt (Homo sapiens, UniProt P06733 1-434); assay: competition EMSA
ENO1down = ENO1down (Homo sapiens, UniProt P06733 1-434, K343A); assay: competition EMSA
Chain of ENO1down (P06733 whole entry K343A): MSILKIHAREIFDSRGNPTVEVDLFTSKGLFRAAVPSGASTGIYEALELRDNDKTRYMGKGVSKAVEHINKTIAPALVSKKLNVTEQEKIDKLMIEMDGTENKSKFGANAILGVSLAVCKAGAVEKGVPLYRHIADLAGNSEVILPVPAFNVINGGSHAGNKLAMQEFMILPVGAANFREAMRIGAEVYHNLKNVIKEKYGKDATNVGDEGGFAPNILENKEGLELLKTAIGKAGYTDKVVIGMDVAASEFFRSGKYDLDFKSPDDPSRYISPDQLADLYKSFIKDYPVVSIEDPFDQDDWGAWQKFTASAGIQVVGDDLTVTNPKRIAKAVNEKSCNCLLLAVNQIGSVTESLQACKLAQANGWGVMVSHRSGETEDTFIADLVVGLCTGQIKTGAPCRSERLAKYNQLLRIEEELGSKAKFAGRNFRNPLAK

Chain of ENO1 wt (P06733 whole entry): as the sequence (P06733 whole entry K343A) above, with A343K counted along it

Row | Binder | Ki (ENO1 wt) [nM] | Ki (ENO1down) [nM]
1 | B1 | 2587 ± 9 | 3261 ± 12
2 | B2 | 27 ± 19 | 224 ± 12
